How the values were obtained:
[1] = target: T1, Integrin beta-5 (Itgb5) of MLO-Y4 cells (mouse, UniProt O70309 24-798); assay: DTSSP cross-linking on MLO-Y4 cells, his-tag pull-down, TMT mass spectrometry; ratio to his-tag adipsin control
T1 construct: whole, on cells; also called ITB5_MOUSE
T1 sequence (looked up): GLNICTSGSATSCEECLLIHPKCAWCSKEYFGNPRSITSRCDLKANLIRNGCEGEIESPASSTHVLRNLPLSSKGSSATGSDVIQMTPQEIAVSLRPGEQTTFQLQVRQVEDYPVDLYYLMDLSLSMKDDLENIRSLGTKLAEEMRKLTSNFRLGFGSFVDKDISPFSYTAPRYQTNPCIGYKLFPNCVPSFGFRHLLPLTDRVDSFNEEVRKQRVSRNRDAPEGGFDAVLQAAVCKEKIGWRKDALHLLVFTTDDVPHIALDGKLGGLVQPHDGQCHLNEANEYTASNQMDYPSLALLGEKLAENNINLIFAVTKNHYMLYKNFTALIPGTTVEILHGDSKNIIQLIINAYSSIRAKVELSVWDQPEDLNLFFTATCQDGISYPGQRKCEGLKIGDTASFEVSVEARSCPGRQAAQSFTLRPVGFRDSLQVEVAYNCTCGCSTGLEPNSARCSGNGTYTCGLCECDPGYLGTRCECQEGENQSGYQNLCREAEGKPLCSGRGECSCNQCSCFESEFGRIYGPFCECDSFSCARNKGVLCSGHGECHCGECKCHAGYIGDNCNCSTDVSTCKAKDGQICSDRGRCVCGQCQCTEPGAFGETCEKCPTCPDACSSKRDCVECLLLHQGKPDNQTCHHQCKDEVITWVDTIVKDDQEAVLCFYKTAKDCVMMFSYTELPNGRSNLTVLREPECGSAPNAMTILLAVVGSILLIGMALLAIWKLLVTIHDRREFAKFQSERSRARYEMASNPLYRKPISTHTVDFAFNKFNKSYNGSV
Description: (§1) Cells were homogenized and immunoprecipitated using 6 his-tag agarose after treatment of DTSSP cross-linker. Immunoprecipitated proteins were labeled with TMT and analyzed by mass spectrometer.
(§2) A chemical cross-linker was then added and incubated with cells, and the ligands were re-purified with (presumptive) cellular proteins covalently attached. The cross-links were then reversed and the products were subjected to quantitative Mass Spectrometry (FIG. 2A).

[2] = target: T2, Integrin alpha-V (Itgav) of MLO-Y4 cells (mouse, UniProt P43406 31-1044); assay: as above
T2 construct: whole, on cells
T2 sequence (looked up): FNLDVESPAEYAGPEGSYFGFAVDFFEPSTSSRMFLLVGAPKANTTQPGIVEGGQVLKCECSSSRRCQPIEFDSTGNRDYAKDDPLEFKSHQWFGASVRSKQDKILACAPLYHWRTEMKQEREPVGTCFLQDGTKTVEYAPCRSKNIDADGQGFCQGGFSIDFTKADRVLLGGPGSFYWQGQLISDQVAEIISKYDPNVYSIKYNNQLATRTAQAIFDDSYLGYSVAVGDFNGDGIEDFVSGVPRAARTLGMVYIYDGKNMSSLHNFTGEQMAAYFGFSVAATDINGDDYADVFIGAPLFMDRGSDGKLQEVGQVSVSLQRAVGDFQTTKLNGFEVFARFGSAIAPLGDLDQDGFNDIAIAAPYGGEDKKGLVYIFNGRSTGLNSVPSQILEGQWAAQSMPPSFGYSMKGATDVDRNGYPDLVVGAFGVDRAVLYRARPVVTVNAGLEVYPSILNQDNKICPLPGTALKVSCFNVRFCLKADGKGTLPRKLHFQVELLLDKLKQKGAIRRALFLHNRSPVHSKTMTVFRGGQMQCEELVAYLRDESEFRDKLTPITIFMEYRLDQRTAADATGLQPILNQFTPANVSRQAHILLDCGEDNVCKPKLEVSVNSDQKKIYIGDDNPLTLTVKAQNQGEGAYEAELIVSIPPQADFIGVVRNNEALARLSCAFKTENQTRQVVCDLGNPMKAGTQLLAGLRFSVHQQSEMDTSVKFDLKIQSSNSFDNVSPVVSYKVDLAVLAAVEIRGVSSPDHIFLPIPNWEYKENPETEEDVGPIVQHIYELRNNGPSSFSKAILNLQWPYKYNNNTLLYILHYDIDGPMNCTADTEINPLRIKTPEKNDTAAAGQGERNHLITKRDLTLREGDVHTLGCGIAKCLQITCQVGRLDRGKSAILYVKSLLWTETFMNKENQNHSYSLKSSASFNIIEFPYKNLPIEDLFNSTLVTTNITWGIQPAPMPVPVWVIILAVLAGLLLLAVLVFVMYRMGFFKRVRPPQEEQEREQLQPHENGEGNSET
Description: as §1, §2

[3] = target: T3, Integrin beta-1 (Itgb1) of MLO-Y4 cells (mouse, UniProt P09055 21-798); assay: DTSSP cross-linking of his-tag ligand on MLO-Y4 cells, his-tag pull-down, TMT quantitative mass spectrometry; ratio to his-tag adipsin control
T3 construct: whole, on cells; Endogenous protein of the mouse osteocyte-like cell line, cross-linked on intact cells; also called β1 integrin; integrin β1
T3 sequence (P09055 21-798): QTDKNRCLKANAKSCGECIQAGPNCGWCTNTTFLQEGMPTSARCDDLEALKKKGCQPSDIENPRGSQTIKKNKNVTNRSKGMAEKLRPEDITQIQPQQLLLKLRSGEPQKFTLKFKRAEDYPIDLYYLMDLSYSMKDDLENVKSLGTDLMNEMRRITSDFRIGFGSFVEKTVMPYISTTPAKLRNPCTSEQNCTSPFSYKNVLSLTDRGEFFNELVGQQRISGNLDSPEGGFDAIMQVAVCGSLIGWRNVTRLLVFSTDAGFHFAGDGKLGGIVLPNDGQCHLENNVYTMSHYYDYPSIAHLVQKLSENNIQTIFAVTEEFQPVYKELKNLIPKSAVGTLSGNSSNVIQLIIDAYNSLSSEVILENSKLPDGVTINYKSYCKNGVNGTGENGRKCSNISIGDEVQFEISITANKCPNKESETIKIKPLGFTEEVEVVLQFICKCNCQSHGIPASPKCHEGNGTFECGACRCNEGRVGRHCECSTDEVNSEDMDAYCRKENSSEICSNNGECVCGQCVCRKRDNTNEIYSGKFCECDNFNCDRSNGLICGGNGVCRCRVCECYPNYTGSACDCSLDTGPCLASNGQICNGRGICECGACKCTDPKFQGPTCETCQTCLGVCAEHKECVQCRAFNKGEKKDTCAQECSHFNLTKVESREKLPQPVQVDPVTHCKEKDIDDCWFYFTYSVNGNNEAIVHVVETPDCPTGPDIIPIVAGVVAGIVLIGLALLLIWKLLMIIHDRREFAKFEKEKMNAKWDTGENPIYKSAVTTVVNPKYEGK
Description: as §1, §2

[4] = target: T3, Integrin beta-1 (Itgb1) of MLO-Y4 cells; assay: DTSSP cross-linking on MLO-Y4 cells, his-tag pull-down, TMT mass spectrometry; irisin channel
Description: as §1, §2

[5] = target: T1, Integrin beta-5 (Itgb5) of MLO-Y4 cells; assay: as above
Description: as §1, §2

[6] = target: T2, Integrin alpha-V (Itgav) of MLO-Y4 cells; assay: as above
Description: as §1, §2

B1: His-tag recombinant irisin (irisin (human/mouse) with a C-terminal 10 his tag, produced in HEK293 cells) (ligand)
chain: DSPSAPVNVTVRHLKANSAVVSWDVLEDEVVIGFAISQQKKDVRMLRFIQEVNTTTRSCALWDLEEDTEYIVHVQAISIQGQSPASEPVLFKTPREAEKMASKNKDEVTMKE
notes: Made in mammalian cells, glycosylated; Used in cell culture and cross-linking experiments; also called 10 His-tag irisin; his-tag irisin; not shown: C-terminal 10 his tag
[1]
  irisin/adipsin (TMT ratio): 1.45
[2]
  irisin/adipsin (TMT ratio): 1.11
[3]
  irsin/adipsin (TMT ratio): 3.44
[4]
  summed signal-to-noise value for TMT channel: 858
[5]
  summed signal-to-noise value for TMT channel: 215
[6]
  summed signal-to-noise value for TMT channel: 60.6
